Here are results for two substances from patent US20050009182.

For the series, the target named is T1, phiC31 integrase (Streptomyces phage phiC31) (UniProt Q9T221).
T1 sequence: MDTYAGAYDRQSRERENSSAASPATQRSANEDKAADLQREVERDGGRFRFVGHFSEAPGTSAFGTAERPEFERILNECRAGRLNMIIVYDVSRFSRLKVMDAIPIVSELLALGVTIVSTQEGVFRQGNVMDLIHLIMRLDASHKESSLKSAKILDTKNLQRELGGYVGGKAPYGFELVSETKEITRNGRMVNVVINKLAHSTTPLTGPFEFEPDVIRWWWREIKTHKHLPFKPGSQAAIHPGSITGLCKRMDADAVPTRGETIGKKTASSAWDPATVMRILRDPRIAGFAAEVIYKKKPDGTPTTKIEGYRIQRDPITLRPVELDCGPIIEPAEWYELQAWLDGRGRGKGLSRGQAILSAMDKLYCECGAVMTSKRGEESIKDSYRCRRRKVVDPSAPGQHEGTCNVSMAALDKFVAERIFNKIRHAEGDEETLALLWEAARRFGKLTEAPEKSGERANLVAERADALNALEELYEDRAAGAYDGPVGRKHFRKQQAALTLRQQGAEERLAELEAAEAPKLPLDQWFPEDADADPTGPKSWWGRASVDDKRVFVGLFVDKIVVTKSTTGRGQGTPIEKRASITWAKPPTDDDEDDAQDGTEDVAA
Briefly: cell_activity.

Take “phiC31 attB (500 bp BamHI-XbaI fragment of pHS21)”: the activity (Ura+ transformants per 10^7 cells) (S. pombe FY527attPx2, circular pLT50 plus pLT43, 63 without integrase) came to 2560.

With “phiC31 attP 84 bp (ApaI-SacI fragment of pHS282)”, the activity (Ura+ transformants per 10^7 cells) (S. pombe FY527attPx2, linear attB-ura4-attB plus pLT43, 19 without integrase) was found to be 1570.
